According to patent EP1506972A1 (Genentech Inc., dated 2005):

Experiments:
Assay in all cases: competitive phage ELISA, soluble IGFBP-1 vs coated IGFBP-1
[1] = molecular target: Ala(1-3)-IGF-I, triple alanine mutant of the first three N-terminal amino acids, displayed on phage (human; bacteriophage M13)
[2] = molecular target: IGF-I D20A (G1S-A70V background) displayed on phage (human; bacteriophage M13)
[3] = molecular target: IGF-I F23A (G1S-A70V background) displayed on phage (human; bacteriophage M13)
[4] = molecular target: IGF-I G19A (G1S-A70V background) displayed on phage (human; bacteriophage M13)
[5] = molecular target: IGF-I G22A (G1S-A70V background) displayed on phage (human; bacteriophage M13)
[6] = molecular target: IGF-I G42A (G1S-A70V background) displayed on phage (human; bacteriophage M13)
[7] = molecular target: IGF-I I43A (G1S-A70V background) displayed on phage (human; bacteriophage M13)
[8] = molecular target: IGF-I N26A (G1S-A70V background) displayed on phage (human; bacteriophage M13)
[9] = molecular target: IGF-I Q40A (G1S-A70V background) displayed on phage (human; bacteriophage M13)
[10] = molecular target: IGF-I R21A (G1S-A70V background) displayed on phage (human; bacteriophage M13)
[11] = molecular target: IGF-I R37A (G1S-A70V background) displayed on phage (human; bacteriophage M13)
[12] = molecular target: IGF-I S34A (G1S-A70V background) displayed on phage (human; bacteriophage M13)
[13] = molecular target: IGF-I S35A (G1S-A70V background) displayed on phage (human; bacteriophage M13)
[14] = molecular target: IGF-I T41A (G1S-A70V background) displayed on phage (human; bacteriophage M13)
[15] = molecular target: IGF-I V44A (G1S-A70V background) displayed on phage (human; bacteriophage M13)
[16] = molecular target: IGF-I Y24A (G1S-A70V background) displayed on phage (human; bacteriophage M13)
[17] = molecular target: T1, IGF-I Q15A (G1S-A70V background) displayed on phage (human; bacteriophage M13)
T1 construct: not shown: M13 gene III fragment (residues 249-406, display carrier) and the IGF-g3 junction
T1 chain: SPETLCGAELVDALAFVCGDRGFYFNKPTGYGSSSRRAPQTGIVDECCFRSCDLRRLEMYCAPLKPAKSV

[18] = molecular target: T2, IGF-I P28A (G1S-A70V background) displayed on phage (human; bacteriophage M13)
T2 construct: not shown: Display carrier: M13 gene III protein fragment (residues 249-406) and the junction to it
T2 chain: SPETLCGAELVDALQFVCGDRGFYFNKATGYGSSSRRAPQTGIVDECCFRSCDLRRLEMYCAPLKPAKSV

[19] = molecular target: T3, IGF-I R50A (G1S-A70V background) displayed on phage (human; bacteriophage M13)
T3 construct: not shown: Display carrier: M13 gene III protein fragment (residues 249-406) and the junction to it
T3 chain: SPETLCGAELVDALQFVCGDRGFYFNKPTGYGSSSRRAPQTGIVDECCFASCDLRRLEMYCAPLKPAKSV

[20] = molecular target: T4, IGF-I L54A (G1S-A70V background) displayed on phage (human; bacteriophage M13)
T4 construct: not shown: Display carrier: M13 gene III protein fragment (residues 249-406) and the junction to it
T4 chain: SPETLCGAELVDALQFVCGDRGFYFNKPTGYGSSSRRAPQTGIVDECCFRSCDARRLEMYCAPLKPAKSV

[21] = molecular target: T5, IGF-I M59A (G1S-A70V background) displayed on phage (human; bacteriophage M13)
T5 construct: not shown: M13 gene III fragment (residues 249-406), the display partner, and its junction to IGF-I
T5 chain: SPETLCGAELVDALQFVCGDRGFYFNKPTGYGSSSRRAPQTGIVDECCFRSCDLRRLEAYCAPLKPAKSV

[22] = molecular target: T6, IGF-I P2A (G1S-A70V background) displayed on phage (human; bacteriophage M13)
T6 construct: range 249-406

[23] = molecular target: T7, IGF-I V70A (single mutant of G1S-A70V) displayed on phage (human; bacteriophage M13)
T7 construct: not shown: Display carrier: M13 gene III protein fragment (residues 249-406) and its junction to residue 70

B1: human IGFBP-1 (other, UniProt P08833 26-259, looked up)
chain: APWQCAPCSAEKLALCPPVSASCSEVTRSAGCGCCPMCALPLGAACGVATARCARGLSCRALPGEQQPLHALTRGQGACVQESDASAPHAAEAGSPESPESTEITEEELLDNFHLMAPSEEDHSILWDAISTYDGSKALHVTNIKKWKEPCRIELYRVVESLAKAQETSGEEISKFYLPNCNKNGFYHSRQCETSMDGEAGLCWCVYPWNGKRIPGSPEIRGDPNCQIYFNVQN
notes: Secreted recombinant protein
With B1 the IC50 [1] was 90.4 nM, the relative IC50 (IC50mut/IC50 G1S-A70V) [1] was 11 fold and the IC50 [2] was 8.4 nM. The relative IC50 (IC50mut/IC50 G1S-A70V) [2] was 1 fold, the IC50 [3] was 10.9 nM and the relative IC50 (IC50mut/IC50 G1S-A70V) [3] was 1.3 fold. The IC50 [4] was 11 nM, the relative IC50 (IC50mut/IC50 G1S-A70V) [4] was 1.3 fold and the IC50 [5] was 15.9 nM. The relative IC50 (IC50mut/IC50 G1S-A70V) [5] was 1.9 fold, the IC50 [6] was 15.7 nM and the relative IC50 (IC50mut/IC50 G1S-A70V) [6] was 1.9 fold. It also gave an IC50 [7] of 31.3 nM, a relative IC50 (IC50mut/IC50 G1S-A70V) [7] of 3.8 fold and an IC50 [8] of 9.1 nM. The relative IC50 (IC50mut/IC50 G1S-A70V) [8] was 1.1 fold, the IC50 [9] was 10.2 nM and the relative IC50 (IC50mut/IC50 G1S-A70V) [9] was 1.2 fold. The IC50 [10] was 7.1 nM, the relative IC50 (IC50mut/IC50 G1S-A70V) [10] was 0.9 fold and the IC50 [11] was 12.3 nM. The relative IC50 (IC50mut/IC50 G1S-A70V) [11] was 1.5 fold, the IC50 [12] was 9.5 nM and the relative IC50 (IC50mut/IC50 G1S-A70V) [12] was 1.2 fold. The IC50 [13] was 11.7 nM, the relative IC50 (IC50mut/IC50 G1S-A70V) [13] was 1.4 fold and the IC50 [14] was 13.7 nM. For the same binder, the relative IC50 (IC50mut/IC50 G1S-A70V) [14] was 1.7 fold, the IC50 [15] was 18.8 nM and the relative IC50 (IC50mut/IC50 G1S-A70V) [15] was 2.3 fold. For the same binder, the IC50 [16] was 13.3 nM, the relative IC50 (IC50mut/IC50 G1S-A70V) [16] was 1.6 fold and the “relative IC50 (IC50mut/IC50 G1S-A70V)” value [17] was 1.7 fold. For the same binder, the “relative IC50 (IC50mut/IC50 G1S-A70V)” value [18] was 1.1 fold, the “relative IC50 (IC50mut/IC50 G1S-A70V)” value [19] was 2 fold and the “relative IC50 (IC50mut/IC50 G1S-A70V)” value [20] was 2.8 fold. The “relative IC50 (IC50mut/IC50 G1S-A70V)” value [21] was 1.6 fold, the “relative IC50 (IC50mut/IC50 G1S-A70V)” value [22] was 1.3 fold and the “relative IC50 (IC50mut/IC50 G1S-A70V)” value [23] was 2.3 fold.
